{
  "source": "paper PMC6650433",
  "about": "“Evolution of metazoan oxygen-sensing involved a conserved divergence of VHL affinity for HIF1α and HIF2α” (Nature Communications, 2019)",
  "molecules": {"B1": {"name": "HIF1α ODD M561T: IVTT 3xFLAG-HIF1α ODD (387–581) with M561T substitution (protein)", "chain": "FDKLKKEPDALTLLAPAAGDTIISLDFGSNDTETDDQQLEEVPLYNDVMLPSPNEKLQNINLAMSPLPTAETPKPLRSSADPALNQEVALKLEPNPESLELSFTMPQIQDQTPSPSDGSTRQSSPEPNSPSEYCFYVDSDMVNEFKLELVEKLFAEDTEAKNPFSTQDTDLDLETLAPYIPMDDDFQLRSFDQLS", "modifications": "hydroxylated in vitro by HIS6-PHD2 (181–426) for one hour before the binding; left off: 3xFLAG, end not stated, kept", "notes": "IVTT 3xFLAG-HIF1α ODD (387–581) with M561T substitution"}, "B2": {"name": "HIF2α ODD T528M: IVTT 3xFLAG-HIF2α(390–554) ODD protein with T528M substitution (protein, UniProt Q99814 390-554, looked up, fragment T528M)", "chain": "FTKLKEEPEELAQLAPTPGDAIISLDFGNQNFEESSAYGKAILPPSQPWATELRSHSTQSEAGSLPAFTVPQAAAPGSTTPSATSSSSSCSTPNSPEDYYTSLDNDLKIEVIEKLFAMDTEAKDQCSTQTDFNELDLEMLAPYIPMDGEDFQLSPICPEERLLAE", "modifications": "ODD 3xFLAG tag", "notes": "IVTT 3xFLAG-HIF2α(390–554) ODD protein with T528M substitution"}, "B3": {"name": "HIF1αODD WT: IVTT 3xFLAG-tagged HIF1α oxygen-dependent degradation domain (387–581), wild type (protein)", "chain": "FDKLKKEPDALTLLAPAAGDTIISLDFGSNDTETDDQQLEEVPLYNDVMLPSPNEKLQNINLAMSPLPTAETPKPLRSSADPALNQEVALKLEPNPESLELSFTMPQIQDQTPSPSDGSTRQSSPEPNSPSEYCFYVDSDMVNEFKLELVEKLFAEDTEAKNPFSTQDTDLDLEMLAPYIPMDDDFQLRSFDQLS", "modifications": "hydroxylated in vitro by HIS6-PHD2 (181–426) for one hour before the binding; left off: 3xFLAG, end not stated, kept", "notes": "IVTT 3xFLAG-tagged HIF1α oxygen-dependent degradation domain (387–581), wild type"}},
  "key": {"[1]": {"target": "T1, VHL-elongin B-elongin C (VBC) complex (Homo sapiens, UniProt P40337+Q15369+Q15370)", "T1 construct": "made in house", "T1 sequence (P40337 54-213 limits assumed)": "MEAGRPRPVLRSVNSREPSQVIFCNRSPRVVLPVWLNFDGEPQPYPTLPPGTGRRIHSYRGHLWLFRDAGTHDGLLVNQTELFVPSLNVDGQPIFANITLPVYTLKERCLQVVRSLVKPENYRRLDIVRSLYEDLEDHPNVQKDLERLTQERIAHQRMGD", "T1 sequence (Q15370 whole entry partner)": "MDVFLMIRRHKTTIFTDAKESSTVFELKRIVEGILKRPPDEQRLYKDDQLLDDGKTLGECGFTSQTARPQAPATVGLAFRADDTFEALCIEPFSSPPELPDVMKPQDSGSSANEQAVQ", "T1 sequence (Q15369 17-112 partner limits assumed)": "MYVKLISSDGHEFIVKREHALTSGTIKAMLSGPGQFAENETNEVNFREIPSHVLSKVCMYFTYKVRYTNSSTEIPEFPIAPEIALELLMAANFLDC", "assay": "Biolayer interferometry, VBC WT binding to immobilized HIFα peptide", "conditions": "VHL/HIFα binding experiments, Fig. 2b (pulldown) and Fig. 2d (BLI), in words", "protocol": "The binding affinities of VBC to hydroxylated HIFα peptide was measured by biolayer interferometry using the BLItz system (Pall ForteBio). A 50 μg/mL solution of biotinylated HIFα peptide was prepared in kinetics buffer (20 mM HEPES pH 7.4, 200 mM NaCl, 1 mM DTT, 0.02% (v/v) Tween-20, and 0.5% (w/v) BSA) and immobilized onto streptavidin (SA)-coated biolayer interferometry (BLI) biosensors (Pall ForteBio, Cat. No. 18–5019) over 120 s. Multiple concentrations of purified VBC complex were diluted in kinetics buffer and allowed to associate with immobilized peptide over 120 s. Subsequently, the SA-BLI probe was immersed into kinetics buffer for 120 s to allow for dissociation. Both protein and buffer were chilled on ice immediately before use. The data were analyzed, step corrected, reference corrected, and fit to a global 1:1 binding model. Kd, ka, and kd were calculated using the BLItz Pro software. All measurements were performed in triplicate with independently purified recombinant protein."}, "HA-VHL30 [2]": {"system": "HA-VHL30", "assay": "In vitro pVHL-HIFα binding (pulldown) assay, VHL WT", "parameters": "species or system human", "conditions": "1.2 μg biotinylated peptide on streptavidin agarose beads, IVTT HA-VHL30, EBC buffer, two hours at 4 °C, anti-HA immunoblot, qualitative", "protocol": "The in vitro pVHL-HIFα binding assay was performed as previously described. HA-VHL30 was expressed in an IVTT rabbit reticulocyte lysate system (Promega, Cat. No. L1170) and incubated with 1.2 μg of biotinylated HIFαOH peptide immobilized on streptavidin agarose beads in 500 μL of EBC buffer (50 mM Tris-HCl pH 8.0, 120 mM NaCl, 0.5% (v/v) NP-40) for two hours at 4 °C. To perform a competition binding assay, 1.8 μg of biotinylated HIFαOH peptide immobilized on streptavidin agarose beads competed with 1 μg of acetylated HIFαOH peptide. Following incubation, beads were washed 4x with NETN buffer (20 mM Tris-HCl pH 8.0, 100 mM NaCl, 1 mM EDTA, 0.5% (v/v) NP-40). Biotinylated peptide was pulled down via streptavidin agarose beads and protein was eluted by boiling beads in sample buffer. Protein levels of HA-VHL30 were determined by immunoblotting."}, "[3]": {"target": "VHL-elongin B-elongin C (VBC) complex, wild type, P40337;Q15370;Q15369", "assay": "biolayer interferometry (BLI)", "conditions": "chain shown with the change;, read off a plot"}, "HA-VHL30 [4]": {"system": "HA-VHL30", "assay": "In vitro hydroxylation and co-immunoprecipitation of HIFα ODD with VHL WT", "format": "binding, human", "conditions": "IVTT 3xFLAG-HIFα ODD hydroxylated with HIS6-PHD2 (181–426) for 1 h, anti-FLAG IP, anti-HA immunoblot, compared with the WT ODD, qualitative", "protocol": "(§1) 3xFLAG-HIFα ODD was expressed via the rabbit reticulocyte lysate system. HIFα ODD was incubated with 15 μg/μL HIS6-PHD2 (181–426) in 200 μL of 40 mM HEPES pH 7.4, 80 mM KCl, 5 mM a-ketoglutarate, 2 mM ascorbic acid, 100 μM FeCl2 tetrahydrate solution at 30 °C for 1 h. Following hydroxylation, 3xFLAG-HIFα was incubated with IVTT VHL30 in 500 μL of wash buffer (40 mM HEPES pH 7.4, 80 mM KCl, 0.05% (v/v) Tween-20, 250 μM EDTA, 1 mM DTT) supplemented with protease inhibitors for 2 h at 4 °C. Following binding, 3xFLAG-HIFα ODD was immunoprecipitated with anti-FLAG antibody immobilized on protein A beads. Protein was eluted by boiling beads in sample buffer. Protein levels of HA-VHL30 were determined by immunoblotting."}, "VHL F91Y": {"system": "VHL F91Y", "assay": "In vitro hydroxylation and co-immunoprecipitation of HIFα ODD with VHL F91Y", "format": "binding, human", "conditions": "IVTT 3xFLAG-HIF1α ODD hydroxylated with HIS6-PHD2, anti-FLAG IP, anti-HA immunoblot, qualitative", "protocol": "as §1"}},
  "note": "[ ]: non-standard residue; d: D form. The star is where a group is joined. Biotin = O=C1N[C@H]2[C@H](CS[C@H]2CCCCC(=O)*)N1; Hyp = O=C(O)[C@@H]1C[C@@H](O)CN1",
  "data": [
    {"molecule": "HIF1αOH(D570delinsGE): hydroxylated HIF1α peptide with insertion of Glyn+6 to mimic HIF2α (Biotin-DLDLEMLA[Hyp]YIPMDGDDFQ-NH2; SMILES CC[C@H](C)[C@H](NC(=O)[C@H](Cc1ccc(O)cc1)NC(=O)[C@@H]1C[C@@H](O)CN1C(=O)[C@H](C)NC(=O)[C@H](CC(C)C)NC(=O)[C@H](CCSC)NC(=O)[C@H](CCC(=O)O)NC(=O)[C@H](CC(C)C)NC(=O)[C@H](CC(=O)O)NC(=O)[C@H](CC(C)C)NC(=O)[C@H](CC(=O)O)NC(=O)CCCC[C@@H]1SC[C@@H]2NC(=O)N[C@@H]21)C(=O)N1CCC[C@H]1C(=O)N[C@@H](CCSC)C(=O)N[C@@H](CC(=O)O)C(=O)NCC(=O)N[C@@H](CC(=O)O)C(=O)N[C@@H](CC(=O)O)C(=O)N[C@@H](Cc1ccccc1)C(=O)N[C@@H](CCC(N)=O)C(N)=O)", "values": [
      {"measurement": "VHL/HIFα complex stability", "setting": "[1]", "value": "does not overtly modulate complex stability"}
    ]},
    {"molecule": "HIF2αOH(∆G537): hydroxylated HIF2α peptide with deletion of G537 (Biotin-ELDLETLA[Hyp]YIPMDEDFQ-NH2; SMILES CC[C@H](C)[C@H](NC(=O)[C@H](Cc1ccc(O)cc1)NC(=O)[C@@H]1C[C@@H](O)CN1C(=O)[C@H](C)NC(=O)[C@H](CC(C)C)NC(=O)[C@@H](NC(=O)[C@H](CCC(=O)O)NC(=O)[C@H](CC(C)C)NC(=O)[C@H](CC(=O)O)NC(=O)[C@H](CC(C)C)NC(=O)[C@H](CCC(=O)O)NC(=O)CCCC[C@@H]1SC[C@@H]2NC(=O)N[C@@H]21)[C@@H](C)O)C(=O)N1CCC[C@H]1C(=O)N[C@@H](CCSC)C(=O)N[C@@H](CC(=O)O)C(=O)N[C@@H](CCC(=O)O)C(=O)N[C@@H](CC(=O)O)C(=O)N[C@@H](Cc1ccccc1)C(=O)N[C@@H](CCC(N)=O)C(N)=O)", "values": [
      {"measurement": "levels of HA-VHL pulled down by immobilized biotinylated HIFαOH peptide (affinity for VHL)", "setting": "HA-VHL30 [2]", "value": "minor decrease in affinity for VHL"}
    ]},
    {"molecule": "HIF2α T528M: hydroxylated HIF2α peptide with T528M substitution (Biotin-ELDLEMLA[Hyp]YIPMDGEDFQ-NH2; SMILES CC[C@H](C)[C@H](NC(=O)[C@H](Cc1ccc(O)cc1)NC(=O)[C@@H]1C[C@@H](O)CN1C(=O)[C@H](C)NC(=O)[C@H](CC(C)C)NC(=O)[C@H](CCSC)NC(=O)[C@H](CCC(=O)O)NC(=O)[C@H](CC(C)C)NC(=O)[C@H](CC(=O)O)NC(=O)[C@H](CC(C)C)NC(=O)[C@H](CCC(=O)O)NC(=O)CCCC[C@@H]1SC[C@@H]2NC(=O)N[C@@H]21)C(=O)N1CCC[C@H]1C(=O)N[C@@H](CCSC)C(=O)N[C@@H](CC(=O)O)C(=O)NCC(=O)N[C@@H](CCC(=O)O)C(=O)N[C@@H](CC(=O)O)C(=O)N[C@@H](Cc1ccccc1)C(=O)N[C@@H](CCC(N)=O)C(N)=O)", "values": [
      {"measurement": "levels of HA-VHL pulled down by immobilized biotinylated HIFαOH peptide (affinity for VHL)", "setting": "HA-VHL30 [2]", "value": "increased affinity for VHL"}
    ]},
    {"molecule": "NLE-substituted HIF1α: hydroxylated HIF1α peptide, Met561 substituted with norleucine", "values": [
      {"measurement": "levels of HA-VHL pulled down by immobilized biotinylated HIFαOH peptide (affinity for VHL)", "setting": "HA-VHL30 [2]", "value": "did not affect the affinity"}
    ]},
    {"molecule": "MetO2: hydroxylated HIF1α peptide, Met561 completely oxidized to methionine sulfone (MetO2)", "values": [
      {"measurement": "levels of HA-VHL pulled down by immobilized biotinylated HIFαOH peptide (affinity for VHL)", "setting": "HA-VHL30 [2]", "value": "further decrease in VHL affinity"}
    ]},
    {"molecule": "Bio-HIF1αOH(M561A): hydroxylated HIF1α peptide, Met561 substituted with alanine (Biotin-DLDLEALA[Hyp]YIPMDDDFQ-NH2; SMILES CC[C@H](C)[C@H](NC(=O)[C@H](Cc1ccc(O)cc1)NC(=O)[C@@H]1C[C@@H](O)CN1C(=O)[C@H](C)NC(=O)[C@H](CC(C)C)NC(=O)[C@H](C)NC(=O)[C@H](CCC(=O)O)NC(=O)[C@H](CC(C)C)NC(=O)[C@H](CC(=O)O)NC(=O)[C@H](CC(C)C)NC(=O)[C@H](CC(=O)O)NC(=O)CCCC[C@@H]1SC[C@@H]2NC(=O)N[C@@H]21)C(=O)N1CCC[C@H]1C(=O)N[C@@H](CCSC)C(=O)N[C@@H](CC(=O)O)C(=O)N[C@@H](CC(=O)O)C(=O)N[C@@H](CC(=O)O)C(=O)N[C@@H](Cc1ccccc1)C(=O)N[C@@H](CCC(N)=O)C(N)=O)", "values": [
      {"measurement": "levels of HA-VHL pulled down by immobilized biotinylated HIFαOH peptide (affinity for VHL)", "setting": "HA-VHL30 [2]", "value": "decreased affinity for pVHL"}
    ]},
    {"molecule": "ELDLETLAPYIPMDEDFQ", "note": "[hydroxylated HIF2α peptide (523–541), biotinylated G537del]", "values": [
      {"measurement": "koff", "setting": "[3]; parent: est. 0.0075 s-1", "value": 0.011, "unit": "s⁻¹"},
      {"measurement": "koff", "setting": "[3]; parent: est. 0.0078", "value": 0.011, "unit": "s⁻¹"}
    ]},
    {"molecule": "B1", "values": [
      {"measurement": "affinity of HIFα ODD protein for VHL (HA-VHL co-immunoprecipitated)", "setting": "HA-VHL30 [4]", "value": "decreased affinity"},
      {"measurement": "HIFα ODD bound by VHL F91Y, compared with VHL WT", "setting": "VHL F91Y", "value": "bound less"}
    ]},
    {"molecule": "B2", "values": [
      {"measurement": "affinity of HIFα ODD protein for VHL (HA-VHL co-immunoprecipitated)", "setting": "HA-VHL30 [4]", "value": "increased the affinity"}
    ]},
    {"molecule": "B3", "values": [
      {"measurement": "HIFα ODD bound by VHL F91Y, compared with VHL WT", "setting": "VHL F91Y", "value": "bound less"}
    ]}
  ]
}
